Numbering of substitutions follows the chain as printed. Names and notes keep the numbering of the source.
B1: N336S: evolved monoamine oxidase (MAO-N) variant N336S (protein, UniProt P46882 1-495, looked up, variant N336S)
Monoamine oxidase N: MTSRDGYQWTPETGLTQGVPSLGVISPPTNIEDTDKDGPWDVIVIGGGYCGLTATRDLTVAGFKTLLLEARDRIGGRSWSSNIDGYPYEMGGTWVHWHQSHVWREITRYKMHNALSPSFNFSRGVNHFQLRTNPTTSTYMTHEAEDELLRSALHKFTNVDGTNGRTVLPFPHDMFYVPEFRKYDEMSYSERIDQIRDELSLNERSSLEAFILLCSGGTLENSSFGEFLHWWAMSGYTYQGCMDCLISYKFKDGQSAFARRFWEEAAGTGRLGYVFGCPVRSVVNERDAARVTARDGREFAAKRLVCTIPLNVLSTIQFSPALSTERISAMQAGHVSMCTKVHAEVDNKDMRSWTGIAYPFNKLCYAIGDGTTPAGNTHLVCFGTDANHIQPDEDVRETLKAVGQLAPGTFGVKRLVFHNWVKDEFAKGAWFFSRPGMVSECLQGLREKHRGVVFANSDWALGWRSFIDGAIEEGTRAARVVLEELGTKREVKARL
B2: N336S/1246M: evolved monoamine oxidase (MAO-N) variant (protein, UniProt P46882 1-495, looked up, variant N336S I246M)
Monoamine oxidase N: B1 Monoamine oxidase N with I246M
B3: D3: HDNO D2 plus N414H (E350L/E352D/N414H), SEQ ID NO: 4 (protein)
chain: MVSSKLATPLSIQGEVIYPDDSGFDAIANIWDGRHLQRPSLIARCLSAGDVAKSVRYACDNGLEISVRSGGHNPNGYATNDGGIVLDLRLMNSIHIDTAGSRARIGGGVISGDLVKEAAKFGLAAVTGMHPKVGFCGLALNGGVGFLTPKYGLASDNILGATLVTATGDVIYCSDDERPELFWAVRGAGPNFGVVTEVEVQLYELPRKMLAGFITWAPSVSELAGLLTSLLDALNEMADHIYPSVFVGVDENRAPSVTVCVGHLGGLDIAERDIARLRGLGRTVSDSIAVRSYDEVVALNAEVGSFEDGMSNLWIDREIAMPNARFAEAIAGNLDKFVSEPASGGSVKLLIDGMPFGNPKRTPARHRDAMGVLALAEWSGAAPGSEKYPELARELDAALLRAGVTTSGFGLLNHNSEVTAEMVAEVYKPEVYSRLAAVKREYDPENRFRHNYNIDPEGS
modifications: HDNO D3
B4: D2: 6-hydroxy-D-nicotine oxidase from Arthrobacter nicotinovorans with E350L/E352D, SEQ ID NO: 2 (protein)
chain: B3 chain with H414N
modifications: HDNO D2

Tests used:
[1] = MAO-N variants, (S)-enantiomer of PPY, ref [104]; cited from earlier work
[2] = Thermal stability: residual activity after incubation at 45° C. or 50° C. (GC); type: physicochemical; conditions: 60 min
Experimental: A subset of mutants was selected and inserted into the HDNO D3 and D6 variants by site directed mutagenesis either alone or in pairs to also check for interactions that would further stabilise the enzyme. Namely, D3-K208E, D6-K208E, D6-R207E, D6-K282E, D6-K428E and D6-K208E/K282E mutant proteins were expressed and purified (as described below) and incubated at elevated temperatures (45° C. or 50° C. for 1 h for D6 variants) using a constant temperature water bath incubator. Aliquots were taken every 15 min and activities were measured by biotransformation and gas chromatography (as described below). The % residual activity corresponds to the ratio between the activity observed after incubation at each specified time over the activity of the enzyme without any thermal treatment.
(§1) A typical 500 μL reaction mixture in a 2 mL tube contained 10 mM amine, 0.05 to 1 mg mL^−1 of purified HDNO variant in pH 8 100 mM NaPi buffer. […] The organic fractions were combined and dried over anhydrous MgSO4 and analysed by GC-FID (conversions) or HPLC (enantiomeric ratios) on a chiral stationary phase (see Chromatography section for details). Turnover frequencies (TOF, min^−1) were calculated as the moles of product formed/moles of enzyme min^−1 based on conversions obtained by GC-FID analysis (see Chromatography method). […]

[3] = Biotransformation of PPY by purified HDNO variants (GC-FID, chiral HPLC); type: biochemical; conditions: for rate / activity increase towards PPY oxidation versus HDNO D2: biotransformation measurements
Experimental: (§2) Chiral normal phase HPLC was performed on an Agilent HPLC system (G1379A degasser, G1312A binary pump, a G1367A well plate autosampler unit, a G1316A temperature-controlled column compartment and a G1315C diode array detector) (Agilent Technologies Inc., Santa Clara, CA) equipped with a CHIRALCEL OD-H (250 mm length, 4.6 mm diameter, 5 μm particle size) analytical column (Daicel Corp., Osaka, Japan). The typical injection volume was 10 μL and chromatograms were monitored at 265 nm. Gas chromatographic (GC) analysis was performed on an Agilent 6850 GC (Agilent Technologies Inc., Santa Clara, CA) with a flame ionization detector and autosampler equipped with a HP-1 column of length 30 m, 0.32 mm inner diameter and 0.25 μm film thickness (Agilent Technologies Inc., Santa Clara, CA).
A typical 500 μL reaction mixture in a 2 mL tube contained 10 mM amine, 0.05 to 1 mg mL^−1 of purified HDNO variant in pH 8 100 mM NaPi buffer. Reactions were incubated at 30° C. with 250 r.p.m shaking for different reaction times, after which they were quenched by the addition of 50 μL of 10 M NaOH and extracted twice with 500 μL tert-butyl methyl ether (HPLC grade, Merck Life Science UK Limited, Gillingham). The organic fractions were combined and dried over anhydrous MgSO4 and analysed by GC-FID (conversions) or HPLC (enantiomeric ratios) on a chiral stationary phase (see Chromatography section for details). Turnover frequencies (TOF, min^−1) were calculated as the moles of product formed/moles of enzyme min^−1 based on conversions obtained by GC-FID analysis (see Chromatography method). The same response factor was considered for both substrate and product.

[4] = Kinetic parameters by HRP-ABTS assay; type: biochemical; conditions: oxidation of 2-phenylpyrrolidine, 30° C., pH 8
Experimental: Kinetic parameters of different HDNO variants were determined using the ABTS-HRP assay. Samples of 20 μL of substrate at different concentrations in DMSO (0.05 mM-10 mM, 10% DMSO final concentration) was diluted in 130 μL of reacting solution which contained 0.2 mg ml^−1 HRP (IV, Sigma) and 0.4 mg ml^−1 ABTS in 100 mM pH 8 NaPi buffer. The assay was started by adding 50 μL purified enzyme (typically 0.1-2 mg ml^−1 concentration). Production of the reduced ABTS was measured using a Tecan infinite M200 microplate reader (Tecan Group Limited, Mannedorf, Switzerland) at 420 nm (E=36 mM^−1 cm^−1) and 30° C. for 10 min. Measurements were made in triplicate and a 1:1 ratio for the oxidation of substrate to the production of hydrogen peroxide was assumed. Rate was plotted against substrate concentration and Vmax and KM values extracted using non-linear regression analysis with a fit to the Michaelis-Menten equation using Prism software (GraphPad Software, San Diego, CA). Protein concentrations for kinetic parameters were determined using the Bradford assay following supplier's instructions using bovine serum albumin (BSA) standards for calibration (Merck Life Science UK Limited, Gillingham).

[5] = Biotransformation of methylbenzylamine by purified HDNO variants; type: biochemical
Experimental: as §2, §1

Row | Molecule | reported kcat [1] | Km [4] | kcat [4] | also measured
1 | B1 | 2.50 s⁻¹ |  |  | 
2 | B2 | 2.13 s⁻¹ |  |  | 
3 | B3 |  | 490 ± 140 µM | 0.71 ± 0.05 s⁻¹ | residual activity [2]: 62%; rate / activity increase towards PPY oxidation versus HDNO D2 ([3]; listed as 6-HDNO D3): 1.7 fold; rate / activity increase towards PPY oxidation versus HDNO D2 ([3]; listed as HDNO D3): almost twofold increase; enantioselectivity of PPY oxidation ([3]; chiral HPLC): completely selective towards the oxidation of the (R)-enantiomer; activity to methylbenzylamine lower than in HDNO D6 [5]: about 20%
4 | B4 |  | 1060 ± 440 µM | 0.50 ± 0.06 s⁻¹ | 

— patent US20240282401A1, “METHODS FOR ENZYME ENGINEERING” (The University of Manchester, priority 2021, published 2024)
